Measured values reported in publication PMC4186968, “Molecular Basis for Coordinating Transcription Termination with Noncoding RNA Degradation” (Molecular Cell, 2014).

How the values were obtained:
Nrd1p-Nab3p = test: Electromobility shift assay of Nrd1p-Nab3p binding to RNA substrates; design: species or system S. cerevisiae; settings: EMSA as for wt RNA; not accurately determined due to poor fit of the curve; estimated by graphical interpolation; read-out: Affinity of Nrd1p-Nab3p for RNA, estimated by graphical interpolation
Excerpt: Figure S6: Related to figure 6. A. Coomassie stained SDS-PAGE showing 10 pmol of each protein preparation used (50 pmol of the CID). Asterisks indicate proteolytic fragments of Air2p (deletions at the C-terminal unstructured region) and Nrd1-ΔCIDp (N-terminal truncation) that constitutes approximately 20% of the full-length protein. M: molecular weight marker. B. Analysis of Nrd1p-Nab3p binding to either the wt RNA, containing motifs required for high-affinity RNA-binding (open boxes), or a mutant variant harboring point mutations designed to disrupt all motifs (mutations underlined). The plots correspond to affinity curves generated by the Prism software from values derived from three independent electromobility shift assays (see supplemental experimental procedures). Bars denote standard deviations.
The affinity for the mutant RNA could not be accurately determined due to the poor fit of the curve but it was estimated to be approximately 45 nM by graphical interpolation. C. Polyadenylation assays using the wt and the mutant RNAs as substrates to test whether high-affinity RNA-binding by Nrd1p-Nab3p is required for stimulation of polyadenylation. Panels correspond to different gels.
(1 picture or pasted object on this page, not shown here) […]
for Nrd1 and Nab3) and stored at -80 °C. […]
average of three measurements. The experimental binding isotherms were analyzed by non- […]

[1] = molecular target: T1, Nrd1 (rNrd1);Nab3 (rNab3) (Saccharomyces cerevisiae;Saccharomyces …, UniProt P53617;P38996 1-575;1-802, |); test: EMSA; Kd value not in the material (legend line truncated); EMSA samples processed as described for the polyadenylation assays; buffer, salt, pH and temperature not in the material; n=3, single-site fit (Prism); settings: protein: recombinant;recombinant; tags: ;C-terminal TEV-His6 (from pDL469 primers); copies: 1;1; single strand
T1 sequence 1: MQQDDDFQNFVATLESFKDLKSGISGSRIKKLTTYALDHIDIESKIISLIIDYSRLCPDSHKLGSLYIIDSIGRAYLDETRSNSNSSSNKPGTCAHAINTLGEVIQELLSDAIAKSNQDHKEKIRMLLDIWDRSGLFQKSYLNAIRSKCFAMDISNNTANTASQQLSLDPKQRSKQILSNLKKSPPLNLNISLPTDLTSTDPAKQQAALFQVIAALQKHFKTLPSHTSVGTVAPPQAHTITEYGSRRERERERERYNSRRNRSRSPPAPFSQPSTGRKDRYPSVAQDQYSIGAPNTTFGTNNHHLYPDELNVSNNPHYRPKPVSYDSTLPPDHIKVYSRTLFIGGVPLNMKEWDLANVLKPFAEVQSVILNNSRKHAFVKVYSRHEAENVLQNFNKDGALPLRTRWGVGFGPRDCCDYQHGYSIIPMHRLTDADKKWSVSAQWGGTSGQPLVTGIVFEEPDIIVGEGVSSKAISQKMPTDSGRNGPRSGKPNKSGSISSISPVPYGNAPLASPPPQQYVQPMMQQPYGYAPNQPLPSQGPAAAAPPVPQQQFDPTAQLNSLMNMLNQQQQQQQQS
T1 sequence 2: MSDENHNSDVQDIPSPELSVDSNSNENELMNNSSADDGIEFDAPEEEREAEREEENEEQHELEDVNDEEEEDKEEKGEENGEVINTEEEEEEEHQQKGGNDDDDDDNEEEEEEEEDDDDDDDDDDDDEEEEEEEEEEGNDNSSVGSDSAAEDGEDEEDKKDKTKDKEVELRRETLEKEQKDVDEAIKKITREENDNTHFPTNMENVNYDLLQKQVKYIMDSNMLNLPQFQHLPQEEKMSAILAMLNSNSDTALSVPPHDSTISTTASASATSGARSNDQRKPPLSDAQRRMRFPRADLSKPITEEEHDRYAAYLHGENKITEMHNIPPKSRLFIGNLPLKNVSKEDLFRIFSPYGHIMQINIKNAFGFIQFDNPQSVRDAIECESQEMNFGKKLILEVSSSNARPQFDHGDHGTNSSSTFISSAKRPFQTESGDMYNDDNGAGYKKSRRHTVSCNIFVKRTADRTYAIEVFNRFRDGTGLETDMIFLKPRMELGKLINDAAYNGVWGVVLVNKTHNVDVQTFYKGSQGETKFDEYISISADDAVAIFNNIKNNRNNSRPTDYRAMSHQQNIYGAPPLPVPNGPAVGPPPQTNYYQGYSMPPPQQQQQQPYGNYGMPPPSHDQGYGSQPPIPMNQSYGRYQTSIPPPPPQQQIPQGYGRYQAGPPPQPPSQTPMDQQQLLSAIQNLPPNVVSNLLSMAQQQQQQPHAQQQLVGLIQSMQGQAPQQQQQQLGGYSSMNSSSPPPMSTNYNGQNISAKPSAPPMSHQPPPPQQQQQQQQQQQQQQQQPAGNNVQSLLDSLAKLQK

[2] = molecular target: T1, Nrd1 (rNrd1);Nab3 (rNab3); test: EMSA; EMSA samples processed as described for the polyadenylation assays; buffer, salt, pH and temperature not in the material; n=3, single-site fit (Prism); settings: protein: recombinant;recombinant; tags: ;C-terminal TEV-His6 (from pDL469 primers); copies: 1;1; single strand
Trf4p NIM peptide = test: Equilibrium binding of Nrd1p CID mutants to the NIM peptide by fluorescence anisotropy (FA); design: species or system S. cerevisiae; settings: Nrd1p CID variant vs wild-type
Excerpt: Equilibrium binding experiments with both the protein and peptide mutants (in red and blue, respectively) were monitored by FA (for the binding isotherms, see Figure S5).
The importance of these contacts was further tested in a quantitative in vitro binding assay using FA.

mutant RNA: mutant RNA with point mutations disrupting all motifs: GAAACGCAAUGAAUUAAGACUCGAUACAUUGCAAUUAGCU (RNA, backbone not given here)
Kd (Nrd1p-Nab3p): ~45 nM

GAAACGCAAUGAAUUAAGACUCGAUACAUUGCAAUUAGCU (ssRNA) [Mutant RNA (DL2975)]
fold loss of affinity vs wt RNA [1]: ~20 fold lower affinity than wt RNA

GAAACGUAAUGAAUUAAGUCUUGAUAUAUAACAAUUAGCU (ssRNA) [Wt RNA (DL2974)]
Kd [2]: 2.4 ± 0.3 nM

B1: I130K (protein)
chain: MQQDDDFQNFVATLESFKDLKSGISGSRIKKLTTYALDHIDIESKIISLIIDYSRLCPDSHKLGSLYIIDSIGRAYLDETRSNSNSSSNKPGTCAHAINTLGEVIQELLSDAIAKSNQDHKEKIRMLLDKWDRSGLFQKSYLNAIRSKCFAMD
Decrease in binding affinity for NIM relative to wild-type CID (fold) (Trf4p NIM peptide): 20 fold
